By Kd is commonly meant the constant that tells how readily two partners part at equilibrium.

The assay deals with recombinant mouse transferrin receptor (TfR) protein (mouse) (UniProt Q62351). The assay can be described thus: SPR; Biacore 3000, CM5 chip, receptors immobilised by EDC/NHS coupling (TfR 58 fmol/mm^2, LRP-1 0.025 fmol/mm^2); peptides injected at 0.25-4 uM, 5 uL/min, 25°C, 10 mM HEPES, 150 mM NaCl, 1.5 mM CaCl2, 1 mM EGTA, 0.005% Tween 20, pH 7.4; Langmuir 1:1 model, global fit. For orientation: SPR reads the build-up and loss of mass on a sensor chip optically.
Sequence of recombinant mouse transferrin receptor (TfR) protein (mouse) (Q62351 whole entry): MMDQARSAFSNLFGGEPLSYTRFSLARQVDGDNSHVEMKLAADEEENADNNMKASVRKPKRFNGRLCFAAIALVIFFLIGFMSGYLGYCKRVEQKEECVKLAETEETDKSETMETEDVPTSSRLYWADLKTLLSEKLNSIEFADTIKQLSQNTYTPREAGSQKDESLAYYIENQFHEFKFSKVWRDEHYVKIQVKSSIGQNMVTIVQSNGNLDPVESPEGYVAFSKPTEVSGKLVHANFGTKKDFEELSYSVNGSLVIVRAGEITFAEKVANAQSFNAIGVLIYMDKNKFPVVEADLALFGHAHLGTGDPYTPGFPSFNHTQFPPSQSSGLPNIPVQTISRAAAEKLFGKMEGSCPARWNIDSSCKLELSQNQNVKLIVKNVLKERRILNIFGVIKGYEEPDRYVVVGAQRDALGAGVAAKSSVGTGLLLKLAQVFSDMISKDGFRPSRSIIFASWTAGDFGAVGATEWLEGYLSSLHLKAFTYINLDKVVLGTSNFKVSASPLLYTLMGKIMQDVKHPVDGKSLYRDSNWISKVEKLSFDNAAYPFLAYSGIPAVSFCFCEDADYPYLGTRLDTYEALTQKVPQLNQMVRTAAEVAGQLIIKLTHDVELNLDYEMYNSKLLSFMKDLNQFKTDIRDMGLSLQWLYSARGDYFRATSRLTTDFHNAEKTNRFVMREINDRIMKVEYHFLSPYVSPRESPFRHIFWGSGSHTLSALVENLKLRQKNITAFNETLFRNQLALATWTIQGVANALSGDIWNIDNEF

Ends that are not written are not given here.

Turning to GYRPVHNIRGHWAPGK-NH2 [GYR (peptide 2)], the Kd amounted to 1000 µM.

(Values after PMC8018780, “Two peptides targeting endothelial receptors are internalized into murine brain endothelial cells” (PLoS ONE, 2021).)
